Reference: patent publication US20030049732A1 (Human Genome Sciences, published 2003)

T1: Nod1 (human, UniProt Q9Y239 1-953)
T1 construct: also called wild-type Nod1; WT Nod1
T1 sequence: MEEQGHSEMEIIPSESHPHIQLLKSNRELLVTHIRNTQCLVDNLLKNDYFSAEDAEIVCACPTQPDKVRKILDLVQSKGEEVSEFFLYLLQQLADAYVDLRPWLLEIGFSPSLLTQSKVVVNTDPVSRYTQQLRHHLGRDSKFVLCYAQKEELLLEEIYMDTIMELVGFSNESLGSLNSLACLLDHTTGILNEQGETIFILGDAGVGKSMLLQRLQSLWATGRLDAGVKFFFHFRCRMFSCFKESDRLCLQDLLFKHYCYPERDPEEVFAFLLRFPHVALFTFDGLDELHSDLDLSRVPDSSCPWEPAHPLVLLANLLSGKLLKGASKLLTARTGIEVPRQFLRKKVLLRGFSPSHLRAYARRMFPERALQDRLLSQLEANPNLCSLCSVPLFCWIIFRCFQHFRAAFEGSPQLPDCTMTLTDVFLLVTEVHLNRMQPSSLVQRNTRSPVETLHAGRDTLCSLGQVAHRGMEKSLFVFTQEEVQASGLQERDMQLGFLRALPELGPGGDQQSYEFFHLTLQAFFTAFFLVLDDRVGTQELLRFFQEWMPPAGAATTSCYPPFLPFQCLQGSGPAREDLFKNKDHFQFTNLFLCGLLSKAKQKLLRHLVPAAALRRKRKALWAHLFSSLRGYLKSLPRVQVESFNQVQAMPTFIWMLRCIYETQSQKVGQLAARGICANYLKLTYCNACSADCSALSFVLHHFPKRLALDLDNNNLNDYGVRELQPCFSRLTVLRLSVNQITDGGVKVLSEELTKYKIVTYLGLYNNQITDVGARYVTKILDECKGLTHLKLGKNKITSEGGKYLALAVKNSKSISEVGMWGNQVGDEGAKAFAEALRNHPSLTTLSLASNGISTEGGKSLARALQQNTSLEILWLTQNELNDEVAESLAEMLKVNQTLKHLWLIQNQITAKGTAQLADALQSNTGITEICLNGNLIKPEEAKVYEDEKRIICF


Target: T1, Nod1
Experiment: co-immunoprecipitation, tagged proteins transiently expressed in 293T cells
From the text: The CARD and its structurally related death effector domain (DED) are peptide motifs that mediate interactions between apoptosis-regulatory proteins (Science 281:1301 (1998); Hofmann et al., Trends Biochem. Sci. 22:155 (1998)).

binding result | Binder
no binding | A20 (other, UniProt P21580 1-790, looked up) MAEQVLPQALYLSNMRKAVKIRERTPEDIFKPTNGIIHHFKTMHRYTLEMFRTCQFCPQFREIIHKALIDRNIQATLESQKKLNWCREVRKLVALKTNGDGNCLMHATSQYMWGVQDTDLVLRKALFSTLKETDTRNFKFRWQLESLKSQEFVETGLCYDTRNWNDEWDNLIKMASTDTPMARSGLQYNSLEEIHIFVLCNILRRPIIVISDKMLRSLESGSNFAPLKVGGIYLPLHWPAQECYRYPIVLGYDSHHFVPLVTLKDSGPEIRAVPLVNRDRGRFEDLKVHFLTDPENEMKEKLLKEYLMVIEIPVQGWDHGTTHLINAAKLDEANLPKEINLVDDYFELVQHEYKKWQENSEQGRREGHAQNPMEPSVPQLSLMDVKCETPNCPFFMSVNTQPLCHECSERRQKNQNKLPKLNSKPGPEGLPGMALGASRGEAYEPLAWNPEESTGGPHSAPPTAPSPFLFSETTAMKCRSPGCPFTLNVQHNGFCERCHNARQLHASHAPDHTRHLDPGKCQACLQDVTRTFNGICSTCFKRTTAEASSSLSTSLPPSCHQRSKSDPSRLVRSPSPHSCHRAGNDAPAGCLSQAARTPGDRTGTSKCRKAGCVYFGTPENKGFCTLCFIEYRENKHFAAASGKVSPTASRFQNTIPCLGRECGTLGSTMFEGYCQKCFIEAQNQRFHEAKRTEEQLRSSQRRDVPRTTQSTSRPKCARASCKNILACRSEELCMECQHPNQRMGPGAHRGEPAPEDPPKQRCRAPACDHFGNAKCNGYCNECFQFKQMYG
no binding | DEDD (other, UniProt O75618 1-318, looked up) MAGLKRRASQVWPEEHGEQEHGLYSLHRMFDIVGTHLTHRDVRVLSFLFVDVIDDHERGLIRNGRDFLLALERQGRCDESNFRQVLQLLRIITRHDLLPYVTLKRRRAVCPDLVDKYLEETSIRYVTPRALSDPEPRPPQPSKTVPPHYPVVCCPTSGPQMCSKRPARGRATLGSQRKRRKSVTPDPKEKQTCDIRLRVRAEYCQHETALQGNVFSNKQDPLERQFERFNQANTILKSRDLGSIICDIKFSELTYLDAFWRDYINGSLLEALKGVFITDSLKQAVGHEAIKLLVNVDEEDYELGRQKLLRNLMLQALP
no binding | Caspase-7 (enzyme, UniProt P55210 1-303, looked up) MADDQGCIEEQGVEDSANEDSVDAKPDRSSFVPSLFSKKKKNVTMRSIKTTRDRVPTYQYNMNFEKLGKCIIINNKNFDKVTGMGVRNGTDKDAEALFKCFRSLGFDVIVYNDCSCAKMQDLLKKASEEDHTNAACFACILLSHGEENVIYGKDGVTPIKDLTAHFRGDRCKTLLEKPKLFFIQACRGTELDDGIQADSGPINDTDANPRYKIPVEADFLFAYSTVPGYYSWRSPGRGSWFVQALCSILEEHGKDLEIMQILTRVNDRVARHFESQSDDPHFHEKKQIPCVVSMLTKELYFSQ
no binding | Caspase-3 (enzyme, UniProt P42574 1-277, looked up) MENTENSVDSKSIKNLEPKIIHGSESMDSGISLDNSYKMDYPEMGLCIIINNKNFHKSTGMTSRSGTDVDAANLRETFRNLKYEVRNKNDLTREEIVELMRDVSKEDHSKRSSFVCVLLSHGEEGIIFGTNGPVDLKKITNFFRGDRCRSLTGKPKLFIIQACRGTELDCGIETDSGVDDDMACHKIPVEADFLYAYSTAPGYYSWRNSKDGSWFIQSLCAMLKQYADKLEFMHILTRVNRKVATEFESFSFDATFHAKKQIPCIVSMLTKELYFYH
no binding | FADD (other, UniProt Q13158 1-208, looked up) MDPFLVLLHSVSSSLSSSELTELKFLCLGRVGKRKLERVQSGLDLFSMLLEQNDLEPGHTELLRELLASLRRHDLLRRVDDFEAGAAAGAAPGEEDLCAAFNVICDNVGKDWRRLARQLKVSDTKIDSIEDRYPRNLTERVRESLRIWKNTEKENATVAHLVGALRSCQMNLVADLVQEVQQARDLQNRSGAMSPMSWNSDASTSEAS
no binding | Ced-4 (other, UniProt P30429 1-549, looked up) MLCEIECRALSTAHTRLIHDFEPRDALTYLEGKNIFTEDHSELISKMSTRLERIANFLRIYRRQASELGPLIDFFNYNNQSHLADFLEDYIDFAINEPDLLRPVVIAPQFSRQMLDRKLLLGNVPKQMTCYIREYHVDRVIKKLDEMCDLDSFFLFLHGRAGSGKSVIASQALSKSDQLIGINYDSIVWLKDSGTAPKSTFDLFTDILLMLKSEDDLLNFPSVEHVTSVVLKRMICNALIDRPNTLFVFDDVVQEETIRWAQELRLRCLVTTRDVEISNAASQTCEFIEVTSLEIDECYDFLEAYGMPMPVGEKEEDVLNKTIELSSGNPATLMMFFKSCEPKTFEKMAQLNNKLESRGLVGVECITPYSYKSLAMALQRCVEVLSDEDRSALAFAVVMPPGVDIPVKLWSCVIPVDICSNEEEQLDDEVADRLKRLSKRGALLSGKRMPVLTFKIDHIIHMFLKHVVDAQTIANGISILEQRLLEIGNNNVSVPERHIPSHFQKFRRSSASEMYPKTTEETVIRPEDFPKFMQLHQKFYDSLKNFACC
no binding | IKKa (enzyme, UniProt O15111 1-745, looked up, also called IKKα) MERPPGLRPGAGGPWEMRERLGTGGFGNVCLYQHRELDLKIAIKSCRLELSTKNRERWCHEIQIMKKLNHANVVKACDVPEELNILIHDVPLLAMEYCSGGDLRKLLNKPENCCGLKESQILSLLSDIGSGIRYLHENKIIHRDLKPENIVLQDVGGKIIHKIIDLGYAKDVDQGSLCTSFVGTLQYLAPELFENKPYTATVDYWSFGTMVFECIAGYRPFLHHLQPFTWHEKIKKKDPKCIFACEEMSGEVRFSSHLPQPNSLCSLVVEPMENWLQLMLNWDPQQRGGPVDLTLKQPRCFVLMDHILNLKIVHILNMTSAKIISFLLPPDESLHSLQSRIERETGINTGSQELLSETGISLDPRKPASQCVLDGVRGCDSYMVYLFDKSKTVYEGPFASRSLSDCVNYIVQDSKIQLPIIQLRKVWAEAVHYVSGLKEDYSRLFQGQRAAMLSLLRYNANLTKMKNTLISASQQLKAKLEFFHKSIQLDLERYSEQMTYGISSEKMLKAWKEMEEKAIHYAEVGVIGYLEDQIMSLHAEIMELQKSPYGRRQGDLMESLEQRAIDLYKQLKHRPSDHSYSDSTEMVKIIVHTVQSQDRVLKELFGHLSKLLGCKQKIIDLLPKVEVALSNIKEADNTVMFMQGKRQKEIWHLLKIACTQSSARSLVGSSLEGAVTPQTSAWLPPTSAEHDHSLSCVVTPQDGETSAQMIEENLNCLGHLSTIIHEANEEQGNSMMNLDWSWLTE
no binding | IKKb (enzyme, UniProt O14920 1-756, looked up, also called IKKβ) MSWSPSLTTQTCGAWEMKERLGTGGFGNVIRWHNQETGEQIAIKQCRQELSPRNRERWCLEIQIMRRLTHPNVVAARDVPEGMQNLAPNDLPLLAMEYCQGGDLRKYLNQFENCCGLREGAILTLLSDIASALRYLHENRIIHRDLKPENIVLQQGEQRLIHKIIDLGYAKELDQGSLCTSFVGTLQYLAPELLEQQKYTVTVDYWSFGTLAFECITGFRPFLPNWQPVQWHSKVRQKSEVDIVVSEDLNGTVKFSSSLPYPNNLNSVLAERLEKWLQLMLMWHPRQRGTDPTYGPNGCFKALDDILNLKLVHILNMVTGTIHTYPVTEDESLQSLKARIQQDTGIPEEDQELLQEAGLALIPDKPATQCISDGKLNEGHTLDMDLVFLFDNSKITYETQISPRPQPESVSCILQEPKRNLAFFQLRKVWGQVWHSIQTLKEDCNRLQQGQRAAMMNLLRNNSCLSKMKNSMASMSQQLKAKLDFFKTSIQIDLEKYSEQTEFGITSDKLLLAWREMEQAVELCGRENEVKLLVERMMALQTDIVDLQRSPMGRKQGGTLDDLEEQARELYRRLREKPRDQRTEGDSQEMVRLLLQAIQSFEKKVRVIYTQLSKTVVCKQKALELLPKVEEVVSLMNEDEKTVVRLQEKRQKELWNLLKIACSKVRGPVSGSPDSMNASRLSQPGQLMSQPSTASNSLPEPAKKSEELVAEAHNLCTLLENAIQDTVREQDQSFTALDWSWLQTEEEEHSCLEQAS
